From US20190263882A1 (Scripps Research, published 2019)
Residue numbers refer to the chain shown, from its start.

T1: relaxin receptor (LGR7)
T1 sequence (Q9HBX9 whole entry, species assumed, looked up): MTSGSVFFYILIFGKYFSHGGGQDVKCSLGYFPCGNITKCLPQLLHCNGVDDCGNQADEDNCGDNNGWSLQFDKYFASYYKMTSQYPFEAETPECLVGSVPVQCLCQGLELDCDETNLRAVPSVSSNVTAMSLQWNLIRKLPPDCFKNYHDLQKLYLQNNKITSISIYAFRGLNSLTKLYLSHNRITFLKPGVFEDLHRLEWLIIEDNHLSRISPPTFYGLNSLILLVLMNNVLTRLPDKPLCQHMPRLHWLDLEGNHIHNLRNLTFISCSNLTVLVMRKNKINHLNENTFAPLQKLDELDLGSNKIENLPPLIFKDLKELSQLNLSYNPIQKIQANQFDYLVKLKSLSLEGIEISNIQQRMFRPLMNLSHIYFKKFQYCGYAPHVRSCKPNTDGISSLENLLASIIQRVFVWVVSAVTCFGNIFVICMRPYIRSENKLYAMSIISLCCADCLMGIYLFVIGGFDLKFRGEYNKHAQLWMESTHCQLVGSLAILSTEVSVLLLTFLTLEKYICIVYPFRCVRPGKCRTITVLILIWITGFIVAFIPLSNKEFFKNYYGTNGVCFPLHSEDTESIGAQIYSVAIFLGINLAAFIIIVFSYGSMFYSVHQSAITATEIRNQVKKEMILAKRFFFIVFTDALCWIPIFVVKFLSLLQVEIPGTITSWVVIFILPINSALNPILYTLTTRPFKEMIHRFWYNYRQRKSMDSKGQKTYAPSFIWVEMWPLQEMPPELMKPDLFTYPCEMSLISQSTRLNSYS

B1: SCX3: palivizumab(NH3, 16GS)-relaxin2(9GS) and palivizumab L (antibody, human IgG1, kappa)
heavy: DSWMEEVIKLCGRELVRAQIAICGMSTWSGGGGSGGGGQLYSALANKCCHVGCTKRSLARFCGGGGSGGGGSGGGGSGQVTLRESGPALVKPTQTLTLTCTFSGFSLSTSGMSVGWIRQPPGKALEWLADIWWDDKKDYNPSLKSRLTISKDTSKNQVVLKVTNMDPADTATYYCARSMITFGGFDVWGAGTTVTVSSASTKGPSVFPLAPSSKSTSGGTAALGCLVKDYFPEPVTVSWNSGALTSGVHTFPAVLQSSGLYSLSSVVTVPSSSLGTQTYICNVNHKPSNTKVDKKVEPKSCDKTHTCPPCPAPPVAGPSVFLFPPKPKDTLMISRTPEVTCVVVDVSHEDPEVKFNWYVDGVEVHNAKTKPREEQYNSTYRVVSVLTVLHQDWLNGKEYKCKVSNKGLPSSIEKTISKAKGQPREPQVYTLPPSRDELTKNQVSLTCLVKGFYPSDIAVEWESNGQPENNYKTTPPVLDSDGSFFLYSKLTVDKSRWQQGNVFSCSVMHEALHNHYTQKSLSLSPGK
light: DIQMTQSPSTLSASVGDRVTITCKCQLSVGYMHWYQQKPGKAPKLLIYDTSKLASGVPSRFSGSGSGTEFTLTISSLQPDDFATYYCFQGSGYPFTFGGGTKLEIKRTVAAPSVFIFPPSDEQLKSGTASVVCLLNNFYPREAKVQWKVDNALQSGNSQESVTEQDSKDSTYSLSSTLTLSKADYEKHKVYACEVTHQGLSSPVTKSFNRGEC
B2: SCX1: palivizumab(NH1, 16GS)-relaxin2(9GS) and palivizumab L (antibody, human IgG1, kappa)
heavy: B1 heavy with F182N, G183A, G184Y
light: B1 light
B3: SCX2: palivizumab(NH2, 16GS)-relaxin2(9GS) and palivizumab L (antibody, human IgG1, kappa)
heavy: B1 heavy with F182N, G184Y
light: B1 light
B4: SC3: Palivizumab (null, 16GS)-relaxin2(9GS) and Palivizumab L (antibody, human IgG1, kappa)
heavy: B1 heavy with F182N, G183W, G184Y
light: B1 light

molecular target: T1, relaxin receptor (LGR7); experiment: cell-based or functional assay

Row | Binder | EC50, CRE-luciferase reporter assay
1 | B1 | 0.129 nM
2 | B2 | 0.0691 nM
3 | B3 | 0.0612 nM

molecular target: T1, relaxin receptor (LGR7); experiment: cell-based or functional assay; remark: another data set of the same source

Row | Binder | LGR7
4 | B4 | 0.205 nM
5 | B1 | 0.115 nM
6 | B2 | 0.129 nM
7 | B3 | 0.115 nM

molecular target: LGR8; experiment: cell-based or functional assay
Sequence (Q8WXD0 whole entry): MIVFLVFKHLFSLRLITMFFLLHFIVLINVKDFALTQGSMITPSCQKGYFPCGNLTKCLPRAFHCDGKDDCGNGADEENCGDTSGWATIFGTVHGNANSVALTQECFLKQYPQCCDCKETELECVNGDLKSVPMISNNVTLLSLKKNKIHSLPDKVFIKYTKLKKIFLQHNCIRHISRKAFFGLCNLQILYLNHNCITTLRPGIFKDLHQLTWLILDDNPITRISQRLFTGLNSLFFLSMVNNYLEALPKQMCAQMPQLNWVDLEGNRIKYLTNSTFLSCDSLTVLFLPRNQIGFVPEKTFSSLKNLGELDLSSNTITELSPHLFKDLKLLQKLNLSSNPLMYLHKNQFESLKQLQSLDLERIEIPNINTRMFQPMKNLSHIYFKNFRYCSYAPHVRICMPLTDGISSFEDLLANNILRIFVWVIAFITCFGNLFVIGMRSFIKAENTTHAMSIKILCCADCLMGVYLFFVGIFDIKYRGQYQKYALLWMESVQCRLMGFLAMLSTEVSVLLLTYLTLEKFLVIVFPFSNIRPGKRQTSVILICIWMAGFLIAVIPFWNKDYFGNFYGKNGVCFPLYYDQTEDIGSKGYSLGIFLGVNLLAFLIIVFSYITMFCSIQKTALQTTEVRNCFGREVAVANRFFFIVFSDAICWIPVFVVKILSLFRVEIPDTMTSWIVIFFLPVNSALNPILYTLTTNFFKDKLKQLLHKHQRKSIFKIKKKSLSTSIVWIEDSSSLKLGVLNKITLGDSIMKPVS

Row | Binder | LGR8
8 | B4 | 177 nM
9 | B1 | 16300 nM
10 | B2 | 939 nM
11 | B3 | 327 nM

molecular target: T2, RSV F protein (UniProt P03420 26-524); experiment: plate binding assay, RSV F protein coated, anti-human IgG (Fc specific) detection, fluorescence read at 25 min
T2 sequence (P03420 26-524): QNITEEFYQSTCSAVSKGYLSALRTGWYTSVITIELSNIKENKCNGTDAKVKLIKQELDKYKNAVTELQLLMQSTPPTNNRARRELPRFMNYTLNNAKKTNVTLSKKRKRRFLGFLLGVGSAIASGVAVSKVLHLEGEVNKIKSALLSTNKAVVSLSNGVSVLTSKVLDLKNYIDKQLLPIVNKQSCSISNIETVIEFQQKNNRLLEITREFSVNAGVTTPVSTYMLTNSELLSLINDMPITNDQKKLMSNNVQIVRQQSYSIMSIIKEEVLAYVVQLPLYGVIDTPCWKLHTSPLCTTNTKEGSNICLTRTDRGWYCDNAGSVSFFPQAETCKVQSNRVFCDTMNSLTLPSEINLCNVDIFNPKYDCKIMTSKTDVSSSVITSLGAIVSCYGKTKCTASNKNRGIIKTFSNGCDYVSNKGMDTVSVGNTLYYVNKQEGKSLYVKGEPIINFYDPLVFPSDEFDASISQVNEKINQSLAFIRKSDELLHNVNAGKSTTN

Row | Binder | Kd
12 | B4 | 0.425 nM
13 | B1 | 163 nM
14 | B2 | 112 nM
15 | B3 | 14.4 nM

molecular target: T2, RSV F protein; experiment: plate binding assay, RSV F protein coated, anti-human IgG (Fc specific) detection, fluorescence read at 50 min

Row | Binder | Kd
16 | B4 | 0.249 nM
17 | B1 | 107 nM
18 | B2 | 83.1 nM
19 | B3 | 9.03 nM
